Laboratory results: patent US20080015137A1 (University of Texas, published 2008)
No end group written: not given here.

T1: Karyopherin beta2 (Kapβ2), full length, wild type (human, UniProt Q92973-2 1-890)
T1 construct: mature; Expressed as a GST fusion from pGEX-Tev and purified; Also used here for the Kapβ2 added in the GST pull-downs; also called Transportin
T1 sequence (looked up): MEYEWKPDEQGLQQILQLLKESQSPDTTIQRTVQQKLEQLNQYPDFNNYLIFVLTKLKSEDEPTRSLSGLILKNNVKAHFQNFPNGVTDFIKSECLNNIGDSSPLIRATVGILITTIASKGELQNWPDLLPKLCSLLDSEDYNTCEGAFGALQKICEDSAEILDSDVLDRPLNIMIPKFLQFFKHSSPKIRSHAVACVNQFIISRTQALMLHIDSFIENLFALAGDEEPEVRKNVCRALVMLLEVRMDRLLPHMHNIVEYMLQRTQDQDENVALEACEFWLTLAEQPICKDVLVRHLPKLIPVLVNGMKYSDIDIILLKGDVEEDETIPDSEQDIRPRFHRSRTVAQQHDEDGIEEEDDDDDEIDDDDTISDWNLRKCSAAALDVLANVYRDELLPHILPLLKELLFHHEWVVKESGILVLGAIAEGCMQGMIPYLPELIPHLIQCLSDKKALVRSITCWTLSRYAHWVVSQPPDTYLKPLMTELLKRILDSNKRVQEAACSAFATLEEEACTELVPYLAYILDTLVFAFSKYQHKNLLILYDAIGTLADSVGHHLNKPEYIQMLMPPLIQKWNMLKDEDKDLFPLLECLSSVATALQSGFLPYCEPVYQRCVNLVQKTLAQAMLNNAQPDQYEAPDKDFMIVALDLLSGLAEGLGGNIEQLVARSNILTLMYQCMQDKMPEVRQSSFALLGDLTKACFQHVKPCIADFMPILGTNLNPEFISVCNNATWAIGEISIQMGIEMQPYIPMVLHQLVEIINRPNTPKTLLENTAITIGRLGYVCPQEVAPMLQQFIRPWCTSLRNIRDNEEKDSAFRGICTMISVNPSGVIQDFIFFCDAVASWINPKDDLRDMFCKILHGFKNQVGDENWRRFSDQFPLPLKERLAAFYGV


Columns and labels:
[1] = molecular target: T1, Karyopherin beta2 (Kapβ2), full length, …; assay: competition ITC (107 pM versus 20 nM for hnRNP A1-NLS)
[2] = molecular target: T1, Karyopherin beta2 (Kapβ2), full length, …; assay: competition ITC; repeat with 20 µM MBP-hnRNP A1-NLS R284A/P288A/Y289A as displacement ligand
[3] = molecular target: T1, Karyopherin beta2 (Kapβ2), full length, …; assay: competition ITC; 108 µM MBP-M9M titrated into 12 µM Kapβ2 with 18 µM MBP-hnRNP A1-NLS R284A/P288A/Y289A as displacement ligand
[4] = molecular target: T1, Karyopherin beta2 (Kapβ2), full length, …; assay: ITC; MBP-M9NLS(257-305) titrated into full length Kapβ2
Method: Substrate residues that make two or more sidechain contacts with Kapβ2 (F273, F281, R284, P288 and Y289) were systematically mutated to alanines.
The ITC studies used a MicroCal Omega VP-ITC calorimeter (MicroCal Inc., Northampton, Mass.). Proteins were dialyzed against buffer containing 20 mM Tris pH 7.5, 100 mM NaCl and 2 mM P-mercaptoethanol. […] Most ITC studies were done at 20° C. with 35 rounds of about 8 μl injections. […] Data was plotted and analyzed using MicroCal Origin software version 7.0, with a single binding site model.

[5] = molecular target: T1, Karyopherin beta2 (Kapβ2), full length, …; assay: competition ITC (control); 154 µM MBP-hnRNP A1-NLS titrated into 12 µM Kapβ2 with MBP-hnRNP A1-NLS R284A/P288A/Y289A as displacement ligand
[6] = molecular target: T1, Karyopherin beta2 (Kapβ2), full length, …; assay: ITC; MBP-hnRNP M(41-70) titrated into full-length Kapβ2
Method: (§1) Quantitation of binding affinity with Isothermal Titration Calorimetry. Binding affinities for wild type and mutant MBP-hnRNP M-NLS were determined using Isothermal titration calorimetry (ITC). The experiments were performed using a MicroCal Omega VP-ITC calorimeter (MicroCal Inc., Northampton, Mass.). MBP-NLS proteins were dialyzed against buffer containing 20 mM Tris pH 7.5, 100 mM NaCl and 2 mM β-mercaptoethanol. […] All ITC experiments were done at 20° C. with 35 rounds of 8 μl injections. Data were plotted and analyzed using the single binding site model of MicroCal Origin software version 7.0.

[7] = molecular target: T1, Karyopherin beta2 (Kapβ2), full length, …; assay: ITC; MBP-hnRNP M(41-70) mutant titrated into full-length Kapβ2
Method: as §1

[8] = molecular target: T1, Karyopherin beta2 (Kapβ2), full length, …; assay: ITC; MBP-hnRNP M(41-70) mutant titrated into full-length Kapβ2; unit cell prints only n
Method: as §1

Binder | Kd [7] [nM] | other results
GPGYSGGSRGYGSGGQGYGNQGSGYGGSFEPYANPTKR (designed binder) [MBP-M9M] |  | fold tighter binding against natural NLS (hnRNP A1-NLS) [1]: 200 fold; Kd [2]: 0.111 nM; Kd [3]: 0.107 nM
GGSYNDFGNYNNQSSNFGPMKGGNFGGRSSGPYGGGGQYFAKPRNQGGY (other, human, UniProt P09651-2 257-305, looked up, not shown: large carriers, MBP fusion of the NLS peptide; also called MBP-hnRNP A1-NLS; wildtype hnRNP A1-NLS) [MBP-M9NLS(257-305) wild type] |  | Kd [4]: 42 nM; Kd [5]: 20 nM
ERPAQNEKRKEKNIKRGGNRFEPYANPTKR (other, human, UniProt P52272 41-70, looked up, not shown: large carriers, also: MBP fusion partner, not in chain, range 41-70; also called MBP-hnRNP M-NLS; hnRNP M-NLS) [MBP-hnRNP M(41-70) wild type] |  | Kd [6]: 10 nM
ERPAQNEKRAAAAIKRGGNRFEPYANPTKR (other, not shown: large carriers; small tags and cut ends, also: MBP fusion partner, not in chain, also called quadruple 50KEKN53/AAAA hnRNP M mutant) [MBP-hnRNP M(41-70) K50A/E51A/K52A/N53A] | 22.3 | 
ERPAQNEKRKEKNIKRGGNRFEPYANATKR (other, not shown: large carriers; small tags and cut ends, also: MBP fusion partner, not in chain) [MBP-hnRNP M(41-70) P67A] |  | Kd [8]: 8.7 nM
ERPAQNEKRKEANIKRGGNRFEPYANPTKR (other, not shown: large carriers; small tags and cut ends, also: MBP fusion partner, not in chain) [MBP-hnRNP M(41-70) K52A] | 14.6 | 
ERPAQNEKRKEKNIKRGGNRAEAAANPTKR (other, not shown: large carriers; small tags and cut ends, also: MBP fusion partner, not in chain) [MBP-hnRNP M(41-70) F61A/P63A/Y64A] | 8600 | 
ERPAQNEKRAAAAAAAGGNRFEPYANPTKR (other, not shown: large carriers; small tags and cut ends, also: MBP fusion partner, not in chain, also called all seven residues of 50KEKNIKR56 mutated to alanines) [MBP-hnRNP M(41-70) K50A/E51A/K52A/N53A/I54A/K55A/R56A] | 1200 | 
ERPAQNEKRKEKNIARGGNRFEPYANPTKR (other, not shown: large carriers; small tags and cut ends, also: MBP fusion partner, not in chain) [MBP-hnRNP M(41-70) K55A] | 7.6 | 
ERPAQNEKRKEKNIKRGGNRAEPYANPTKR (other, not shown: large carriers; small tags and cut ends, also: MBP fusion partner, not in chain) [MBP-hnRNP M(41-70) F61A] | 11.2 | 

More lines, in order of falling Kd [7], values ahead:

Kd [7] [nM] | Binder | other results
4500 | ERPAQNEKRKEKNIKRGGNRFEAAANPTKR (other, not shown: large carriers; small tags and cut ends, also: MBP fusion partner, not in chain) [MBP-hnRNP M(41-70) P63A/Y64A] | 
17.1 | ERPAQNEKRKEKAIKRGGNRFEPYANPTKR (other, not shown: large carriers; small tags and cut ends, also: MBP fusion partner, not in chain) [MBP-hnRNP M(41-70) N53A] | 
16.4 | ERPAQNEKRAEKNIKRGGNRFEPYANPTKR (other, not shown: large carriers; small tags and cut ends, also: MBP fusion partner, not in chain) [MBP-hnRNP M(41-70) K50A] | 
13.9 | ERPAQNEKRKEKNIKAGGNRFEPYANPTKR (other, not shown: large carriers; small tags and cut ends, also: MBP fusion partner, not in chain) [MBP-hnRNP M(41-70) R56A] | 
8.8 | ERPAQNEKRKEKNAKRGGNRFEPYANPTKR (other, not shown: large carriers; small tags and cut ends, also: MBP fusion partner, not in chain) [MBP-hnRNP M(41-70) I54A] | 
